Test results taken from patent US11912782B2, “BCMA monoclonal antibody-drug conjugate” (MedImmune, LLC, priority 2017, dated 2024).
Numbering of substitutions follows the chain as printed. Entries after “also recorded” stand apart in the source; their conditions may differ.

What was measured:
[1] = test system: MM.1S xenograft; test: MM.1S subcutaneous xenograft model (Example 9); assay type: in vivo, mouse; conditions: 3 mg/kg intravenous, observed for 85 days post tumor implantation
Source text: (§1) Subcutaneous xenograft mouse models of multiple myeloma and plasma cell leukemia were generated by implanting BCMA-expressing multiple myeloma or plasma cell leukemia cell lines (i.e., NCI-H929 and MM.1S) into female CB-17 SCID (C.B-17/IcrHsd-Prkdc-scid) mice using MATRIGEL™ (BD Biosciences, San Jose, Calif.). Once tumors reached approximately 200 mm^3 (NCI-H929 cells) or 180 mm^3 (MM.1S cells), mice were randomized based on tumor size and placed into dosing groups and treated with BCMA-targeting ADCs as described below.
Mice were treated with either a single intravenous dose of the ADCs IgG1-SG3400 or 15B2GL-SG3400 at 1 mg/kg or 3 mg/kg or dosed intravenously with J6M0-SG3400 at a dose of 1 mg/kg or 3 mg/kg. Control mice were left untreated.

[2] = test system: MM.1S cells; test: Cell killing in the presence of soluble BCMA (conditioned media from Ad293 cells expressing human BCMA); assay type: cell-based
Protocol: Killing of multiple myeloma and plasma cell leukemia cell lines by antibody-drug conjugates comprising 15B2GL, or affinity-optimized clones thereof, conjugated to SG3249 was evaluated in vitro using the protocol recommended in the CELLTITER-GLO® kit (Promega, Madison, Wis.). Killing of multiple myeloma and plasma cell leukemia cell lines by the free warhead SG3199 also was evaluated using the protocol recommended in the CELLTITER-GLO® kit (Promega, Madison, Wis.). Briefly, 5×10^3 cells in 80 μL RPMI+10% FBS were added to the inner wells of white-walled 96-well plates (Corning® Costar®, Fisher Scientific, Waltham, Mass.). The following BCMA-expressing cell lines were tested: NCI-H929, EJM, MM.1R. JJN3, OPM-2, MM.1S, U266.B1, and L363. BMCA-negative cell lines Raji and Jurkat also were tested. The antibody-drug conjugates were diluted to a 5× stock (2.5 μg/mL) in RPMI+10% FBS. Treatments were then serially diluted 1:3 in RPMI+10% FBS. 20 μL of this series was added to the cells in duplicate, resulting in a 12-point dose curve of antibody-drug conjugate ranging from 0.5 μg/mL at the highest concentration to 3×10^−[…] at the lowest. Isotype antibody-drug conjugate (IgG1-SG3249 and IgG1-mc-MMAF) and media-only controls also were included. Plates were incubated at 37° C., 5% CO2 for 96 hours. At the end of the incubation period, 100 μL of the Substrate Solution (Promega, Madison Wis.) was added to each well. Luminescence was measured using an EnVision™ Multilabel plate reader (Perkin Elmer, Waltham, Mass.). Data were analyzed and graphed using GraphPad Prism™ software (GraphPad Software, Inc., La Jolla, Calif.), and the half-maximal inhibitory concentration (IC50) was determined.
The ability of the 15B2GL-SG3249 ADC to kill multiple myeloma cells in vitro in the presence of soluble BCMA (sBCMA) as compared to the I09-5G3249 ADC was evaluated in MM.1S cells using the protocol described above, except that tested cell lines also were treated with BCMA-containing conditioned media collected from Ad293 cells expressing human BCMA (FIGS. 3A and 3B). 15B2GL-SG3249 ADC cell killing in the presence of sBCMA also was compared to ADCs comprising the anti-BCMA antibody J6M0, which is described in U.S. Pat. No. 9,273,141.

[3] = test system: NCI-H929 xenograft; test: NCI-H929 subcutaneous xenograft model (Example 5); assay type: in vivo, mouse; conditions: single intravenous dose 0.3 mg/kg, observed for 99 days post tumor implantation
Source text: as §1, with “(i.e., NCI-H929, JJN-3, MM.1S,” for “(i.e., NCI-H929”, “and MM.1R)” for “and MM.1S)”, “(C.B-17/IcrHsd-Prkdc-scid) or athymic nude (Foxn1^nu)” for “(C.B-17/IcrHsd-Prkdc-scid)”, “approximately 180” for “approximately 200”, “(NCI-H929 cells), 190 mm^3 (JJN3 cells), 160” for “(NCI-H929 cells) or 180”, “(MM.1S cells), or 175 mm^3 (MM.1R” for “(MM.1S”
Mice were treated with either a single intravenous dose of the ADCs 15B2GL-SG3249, I09-5G3249, L15-SG3249 at 0.3 mg/kg or dosed intravenously with J6M0-mc-MMAF weekly at a dose of 0.3 mg/kg for 2 weeks. Control mice were left untreated.

[4] = test system: JJN3 xenograft; test: JJN3 subcutaneous xenograft model; assay type: in vivo, mouse; conditions: single intravenous dose 1 mg/kg, observed for 104 days post tumor implantation
Source text: as §1, with “(i.e., NCI-H929, JJN-3, MM.1S,” for “(i.e., NCI-H929”, “and MM.1R)” for “and MM.1S)”, “(C.B-17/IcrHsd-Prkdc-scid) or athymic nude (Foxn1^nu)” for “(C.B-17/IcrHsd-Prkdc-scid)”, “approximately 180” for “approximately 200”, “(NCI-H929 cells), 190 mm^3 (JJN3 cells), 160” for “(NCI-H929 cells) or 180”, “(MM.1S cells), or 175 mm^3 (MM.1R” for “(MM.1S”
Mice were treated with either a single intravenous dose of 15B2GL-SG3249, 109-SG3249, and L15-SG3249 ADCs at 1 mg/kg, or dosed intravenously with J6M0-mc-MMAF ADC weekly at a dose of 1 mg/kg for 3 weeks. Control mice were left untreated.

[5] = test system: MM.1S xenograft; test: MM.1S subcutaneous xenograft model (Example 5); assay type: in vivo, mouse; conditions: single intravenous dose 1 mg/kg, observed for 99 days post tumor implantation
Source text: as §1, with “(i.e., NCI-H929, JJN-3, MM.1S,” for “(i.e., NCI-H929”, “and MM.1R)” for “and MM.1S)”, “(C.B-17/IcrHsd-Prkdc-scid) or athymic nude (Foxn1^nu)” for “(C.B-17/IcrHsd-Prkdc-scid)”, “approximately 180” for “approximately 200”, “(NCI-H929 cells), 190 mm^3 (JJN3 cells), 160” for “(NCI-H929 cells) or 180”, “(MM.1S cells), or 175 mm^3 (MM.1R” for “(MM.1S”
Mice were treated with either a single intravenous dose of 15B2GL-SG3249, 109-SG3249, L15-SG3249 ADCs at 1 mg/kg or dosed intravenously with J6M0-mc-MMAF twice weekly at a dose of 1 mg/kg for 4 weeks. Control mice were left untreated.

[6] = target: T1, monomeric human sBCMA (Homo sapiens, UniProt Q02223); test: Kinetics/affinity measurement by SPR (BioRad ProteOn XPR36), antibody captured by anti-Fc, sBCMA flowed over; assay type: binding; conditions: sBCMA 100-6.25 nM
T1 construct: is comprised of the entire extracellular domain of the molecule; purchased GenScript
T1 sequence (Q02223 1-54 limits assumed): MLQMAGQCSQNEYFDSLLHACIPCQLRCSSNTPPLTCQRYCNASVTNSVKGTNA
Protocol: The binding of 15B2GL monoclonal antibody and optimized clones I09, L15, P10, N22, and M02 (described in Example 1) was assessed using monomeric human sBCMA (GenScript, Piscataway, N.J.) using a ProteOn™ XPR36 instrument (Bio-Rad, Hercules, Calif.). The binding of J6M0 also was assessed for comparison. Standard amine coupling was used to immobilize 25 μg/ml anti-Fc polyclonal antibody (Jackson ImmunoResearch, West Grove, Pa.) prepared in 10 mM sodium acetate buffer (pH 4.5) to the surface of a ProteOn™ GLC biosensor chip (Bio-Rad, Hercules, Calif.) pre-activated with 20 mM EDAC (1-ethyl-3-(3-dimethylaminopropyl)carbodiimide hydrochloride) and 5 mM Sulfo-NHS (N-hydroxysulfosuccinimide) at a density of ˜200-600 resonance units (RU). 15B2GL, I09, L15, P10, N22, M02, and J6M0 were subsequently injected at a concentration of 1 μg/ml for capture by the immobilized anti-Fc polyclonal antibody. The sensorgram was recorded by flowing two-fold serial dilutions of sBCMA prepared in PBS (pH 7.4) with 0.005% (v/v) Tween®-20, ranging from 100-6.25 nM, over the captured surface for 150 seconds at 75 μL/minute with dissociation time of 600 seconds. ProteOn™ data analysis software was used to analyze the data.

[7] = target: T2, BAFF-R (Homo sapiens, UniProt Q96RJ3); test: FACS binding to Ad293 cells stably expressing BAFF-R
T2 construct: expressed in transfected cells
T2 sequence (Q96RJ3 1-184): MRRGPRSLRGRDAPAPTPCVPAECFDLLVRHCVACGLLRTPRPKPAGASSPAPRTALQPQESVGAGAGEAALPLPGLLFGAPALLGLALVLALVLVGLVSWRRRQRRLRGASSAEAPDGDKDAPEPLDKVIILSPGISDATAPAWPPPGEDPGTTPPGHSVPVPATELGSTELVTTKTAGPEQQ
Protocol: (§2) Antibodies 4679, 756, and 15B2GL (as described below) were analyzed by FACS to evaluate binding of antibodies to human BCMA, cynomolgus monkey BCMA, TACI, and BAFF-R using recombinant forms of the receptors stably expressed on Ad293 cells. Binding assays were performed by incubating antibodies 4679, 756, and 15B2GL with 200,000 cells at 4° C. for 45 minutes followed by two washes with PBS+2% FBS. Cells were then incubated with Alexa-Fluor® 647-labeled secondary antibodies at 4° C., followed by two washes in PBS+2% FBS. Anti-BAFF-R, anti-TACI, and anti-human BCMA-APC labeled antibodies were added according to manufacturer's recommended dilution in control wells. Cells were resuspended in 200 uL PBS+2% FBS+DAPI and antibody binding to live cells was analyzed using a Becton Dickinson™ Biosciences LSRII cytometer.

[8] = target: T3, TACI (Homo sapiens, UniProt O14836); test: FACS binding to Ad293 cells stably expressing TACI
T3 construct: expressed in transfected cells
T3 sequence (O14836 1-293): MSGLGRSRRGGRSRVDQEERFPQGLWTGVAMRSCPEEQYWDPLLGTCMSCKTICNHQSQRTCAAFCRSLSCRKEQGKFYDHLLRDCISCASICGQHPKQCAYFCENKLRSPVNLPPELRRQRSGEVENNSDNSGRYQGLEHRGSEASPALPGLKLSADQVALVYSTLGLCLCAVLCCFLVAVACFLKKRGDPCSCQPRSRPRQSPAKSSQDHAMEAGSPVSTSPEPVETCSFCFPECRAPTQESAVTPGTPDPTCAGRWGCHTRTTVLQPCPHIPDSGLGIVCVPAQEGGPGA
Protocol: as §2

[9] = test system: cynomolgus monkey BCMA; test: FACS binding to Ad293 cells stably expressing cynomolgus BCMA; conditions: Ad293 cells expressing cynoBCMA
Protocol: as §2

[10] = test system: H929 multiple myeloma cells; test: Internalization by FACS on H929 cells; assay type: cell-based; conditions: compared to J6M0 and the LO antibodies
Protocol: The ability of the 15B2GL antibody and LO clones of 15B2GL to bind, internalize, and kill H929 multiple myeloma cells in vitro was assessed using Fab-ZAP and by FACS binding to endogenous BCMA expressed on cell lines as described above. Briefly, antibodies were incubated with 200,000 cells for 30 minutes at 4° C. followed by two washes with PBS+2% FBS. Cells were resuspended in 100 uL cold PBS+2% FBS and kept at 4° C. At certain timepoints, cells were washed and resuspended in warm RPMI+10% FBS and placed into a 37° C. incubator, 5% CO2. At the end of the experiment, cells were washed and then incubated with Alexa-Fluor® 647-labeled secondary antibodies at 4° C., followed by two washes in PBS+2% FBS. Cells were resuspended in 200 μL PBS+2% FBS+DAPI and antibody binding to live cells was analyzed using a Becton Dickinson Biosciences LSRII cytometer.

With “J6M0-SG3400: BCMA-targeting ADC of J6M0 with SG3400” the tumor regrowth [1] was “no evidence of tumor regrowth”.

For “J6M0-SG3249: ADC comprising the anti-BCMA antibody J6M0 and SG3249”, the IC50 ([2]; sBCMA 0 ng/mL) was 0.004816 mg/L, the IC50 ([2]; sBCMA 75 ng/mL) was 0.01283 mg/L and the “Fold loss of potency” value ([2]; sBCMA 75 ng/mL vs 0) was 2.66. The IC50 ([2]; sBCMA 270 ng/mL) was 0.03226 mg/L, the “Fold loss of potency” value ([2]; sBCMA 270 ng/mL vs 0) was 6.70 and the IC50 ([2]; sBCMA 720 ng/mL) was 0.09292 mg/L. For the same molecule, the “Fold loss of potency” value ([2]; sBCMA 720 ng/mL vs 0) was 19.29.

B1: I09-SG3249: ADC: optimized clone I09 conjugated to the PBD payload SG3249 (conjugate)
VH: EVQLVESGGGLVKPGGSLRLSCAASGFTFSSYSMNWVRQAPGKGLEWVSSISGSSNYIYYADSVKGRFTISRDNAKNSLYLQMNSLRAEDTAVYYCARGGNYFVEYFQQWGQGTLVTVSS
VL: EIVLTQSPGTLSLSPGERATLSCRASQYISSNYLAWYQQKPGQAPRLLIYGASNRATGIPDRFSGSGSGTDFTLTISRLEPEDFAVYYCQQYSSDPITFGQGTKLEIK
In the case of B1, the tumor regrowth [3] is reported as “no evidence of tumor regrowth”, the tumor regrowth [4] is reported as “no evidence of tumor regrowth” and the tumor regrowth [5] is reported as “no evidence of tumor regrowth”.

B2: 15B2GL: germline form of anti-BCMA monoclonal antibody 15B2; VH SEQ ID NO: 7, VL SEQ ID NO: 8 (antibody, V domains shown)
VH: B1 VH with S30R, F103Y, Q109Y
VL: B1 VL with S93G, D95S
In the case of B2, the Koff [6] is reported as 2.27E−02, the Kon [6] is reported as 3.73E+05 and the “Binding to BAFF-R” value [7] is reported as “did not bind”. For the same molecule, the “Binding to TACI” value [8] was “did not bind”, the Cynomolgus cross-reactivity [9] was “cynomolgus cross-reactive; also recorded: cyno-cross reactive” and the Internalization [10] was “unique and rapid internalization”.
